The values below come from article PMC7826336.

Assay [1] addresses prekallikrein (PK). As to the kind of experiment: SPR; Pioneer biosensor, COOHV chip; PMSF-treated PK (FC-1) or PKa (FC-3) immobilised by amine coupling; analytes diluted to 250 nM, OneStep gradient injection, 30 uL/min, dissociation 600 s; 22 °C; 10 mM Hepes, 140 mM NaCl, 1.5 mM CaCl2, 40 uM ZnCl2 pH 7.4; simple ka/kd 1 or 2 binding site model. Background: Surface plasmon resonance follows binding to a sensor surface in real time, without labels.

The target in assay [2] is kallikrein (PKa) (UniProt P03952). The assay is described as above.
Sequence of kallikrein (PKa) (P03952 20-390, chain 1 of 2): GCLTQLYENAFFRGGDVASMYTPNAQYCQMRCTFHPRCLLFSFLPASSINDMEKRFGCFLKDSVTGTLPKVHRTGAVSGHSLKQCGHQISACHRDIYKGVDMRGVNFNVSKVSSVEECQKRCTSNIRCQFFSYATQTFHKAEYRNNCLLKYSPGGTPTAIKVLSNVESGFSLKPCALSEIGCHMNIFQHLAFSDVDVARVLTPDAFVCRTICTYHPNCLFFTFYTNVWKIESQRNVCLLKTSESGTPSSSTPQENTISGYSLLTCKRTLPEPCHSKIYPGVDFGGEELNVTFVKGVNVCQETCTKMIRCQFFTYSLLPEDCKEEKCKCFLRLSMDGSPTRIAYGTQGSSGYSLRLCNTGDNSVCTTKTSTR
Sequence of kallikrein (PKa) (P03952 391-638, chain 2 of 2): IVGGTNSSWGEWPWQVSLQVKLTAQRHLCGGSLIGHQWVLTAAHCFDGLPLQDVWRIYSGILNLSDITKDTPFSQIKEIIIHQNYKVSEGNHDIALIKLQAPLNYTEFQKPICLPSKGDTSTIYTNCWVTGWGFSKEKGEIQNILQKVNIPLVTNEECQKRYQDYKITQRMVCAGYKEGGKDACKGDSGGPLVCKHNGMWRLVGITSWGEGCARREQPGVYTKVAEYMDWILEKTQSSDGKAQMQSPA

One may read the Kd as the concentration at which binding is half-saturated. Low values mean a tighter complex, high ones a looser complex. One may read the koff as a measure of how fast the partners let go of each other. A higher koff goes with a short-lived complex. In general, kon refers to a measure of how fast the partners come together. Read a high kon as faster complex formation. In assay [1], “Factor IX (FIX) (from UniProt P00740 47-461) (natural protein)” came in with an equilibrium dissociation constant (Kd) of 2.17 nM, a koff of 0.000239 s⁻¹ and a kon of 110000 M⁻¹ s⁻¹.
For “activated Factor IX (FIXa) (from UniProt P00740 47-191; P00740 227-461) (enzyme)”, in that order: 0.492 nM, 6.45e-05 s⁻¹ and 131000 M⁻¹ s⁻¹.
In the case of “high molecular weight kininogen (HK) (natural protein)”, in assay [2], the Kd worked out at 0.272 nM, the koff was found to be 2.82e-05 s⁻¹ and the on-rate (kon) is 104000 M⁻¹ s⁻¹. Also, in assay [1], the equilibrium dissociation constant (Kd) turned out to be 0.245 nM, the koff stood at 3.73e-05 s⁻¹ and the on-rate constant (kon) turned out to be 152000 M⁻¹ s⁻¹.
